The record followed here is patent US20180312587A1 (ADURO BIOTECH HOLDINGS EUROPE B V, published 2018).

As usually defined, the EC50 is the concentration giving half of the maximal effect. Usually IC50 stands for the concentration that gives 50% inhibition. Low readings indicate greater potency, high ones weaker potency.

One assay has as its target T1, human SIRPα variant 1 (human, UniProt P78324 31-504).
T1 construct: full length ORF on transfected CHO-K1 or HEK293 cells; entry includes the signal peptide; also called hSIRPαV1; SIRPαV1
The assay is described as follows: CELISA, CHO-K1 transfectants, point mutant study. Here is the method:
Amino acids in the hSIRPα IgV domain that are altered in hSIRPβ1 were mutated by using the QuikChange II Site-Directed Mutagenesis Kit (Stratagene) and the full length hSIRPαV1 sequence (SEQ ID NO: 33) as donor cDNA. Binding of hSIRPα.40A to hSIRPαV1 point mutants was tested using CELISA. To this end, CHO-K1 cells were transiently transfected, using Lipofectamine 2000, with cDNA encoding the full length open reading frame of hSIRPαV1 and mutants thereof, and hSIRPβ1 subcloned into the pCI-neo vector. Transfected cells were seeded in culture medium (DMEM-F12 (Gibco) supplemented with 5% New Born Calf Serum (BioWest) and Pen/Strep (Gibco)) in 96-well flat-bottom tissue culture plates and incubated at 37° C., 5% CO₂ and 95% humidity for 24 hours. Subsequently, culture medium was removed and cells were incubated for 1 hour at 37° C., 5% CO₂ and 95% humidity with purified hSIRPα antibodies (used at 10 μg/mL and dilutions thereof). Next, cells were washed with PBS-T and incubated for 1 hour at 37° C., 5% CO₂ and 95% humidity with goat-anti-mouse IgG-HRP (Southern Biotech). Subsequently, cells were washed three times with PBS-T and immunoreactivity against hSIRPαV1, hSIRPαV1 mutants, and hSIRPβ1 was visualized with TMB Stabilized Chromogen (Invitrogen). Reactions were stopped with 0.5 M H₂SO₄ and absorbances were read at 450 and 610 nm. […]

For assay [1], the target named is T2, hSIRPα expressed on primary human cells (human, UniProt P78324 31-504).
T2 construct: whole, on cells; also called hSIRPα on primary human CD14+ monocytes; on primary human granulocytes
The assay is described as follows: flow cytometry, primary human granulocytes, donor 1. Here is the method: Next, cells were centrifuged at 300 g for 7 minutes. Supernatants containing lysed RBCs were removed by aspiration, and the remaining blood cells were gently resuspended in RBC lysis buffer and kept on ice for 1 minute. RBC lysis was neutralized by adding assay medium (IMDM (Gibco) supplemented with 10% Fetal Bovine Serum (Gibco) and Pen/Strep (Gibco)). Blood cells were centrifuged at 300 g for 6 minutes and supernatants were removed by aspiration to remove remaining RBCs as much as possible. Subsequently, erythrocyte-lysed blood cells were resuspended in assay medium containing 10 ng/mL IFNγ and cells were incubated for 1 hour at 37° C., 5% CO₂ and 95% humidity. […] The percentage of granulocytes present in the cell suspension was determined by flow cytometry on the FACSCanto II (BD Biosciences) based on high forward scatter (FSC) and side scatter (SSC). Binding of hSIRPα.50A to human granulocytes was assessed by incubating the cells for 30 minutes at 4° C. with hSIRPα.50A antibody (25 μg/mL and dilutions thereof) in PBS/1% BSA containing 10% autologous serum (PBS/1% BSA/10% serum). […] After this labeling procedure, cells were washed two times, resuspended in PBS/1% BSA/10% serum and analysed by flow cytometry on the FACSCanto II (BD Biosciences). Data were processed and analysed with FlowJo V10 software (FlowJo, LLC). […]
On the technique in general: A flow cytometer gives signals particle by particle.

Another assay addresses T3, human SIRPα variant 2 (human, UniProt P78324 31-504).
T3 construct: full length ORF on transfected CHO-K1 cells; also called hSIRPαV2; SIRPαV2
The assay is described as follows: flow cytometry, blockade of DyLight488-hCD47/Fc binding to THP-1 cells. A digest of the protocol: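 THP-1 or U-937 monocyte cells were placed in 96-well round-bottom plates and incubated at 4 °C for 45 minutes in PBS/1% BSA containing FcR Blocking Reagent and a dilution series of anti-SIRPα antibody. After a further wash, cells were resuspended with 0.1 μg/mL DAPI, read by flow cytometry and analyzed in FlowJo. IC50 is defined as the antibody concentration that gives half-maximal inhibition of CD47/Fc binding.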

The next assay has as its target T4, human SIRPβ1 (human, UniProt O00241 30-398).
T4 construct: also called hSIRPβ1
The assay is described as follows: CELISA, CHO-K1 transfectants. As for the experimental part:
Reactivity was confirmed using CHO-K1 cells (ATCC CCL-61) that had been transiently transfected, using Lipofectamine 2000, with cDNA encoding the full length open reading frame of hSIRPαV1, hSIRPαV2, hSIRPβ1, hSIRPβL, and hSIRPγ subcloned into the pCI-neo vector (Promega, Madison, Wis.). CHO-K1.hSIRPαV1, CHO-K1.hSIRPαV2, CHO-K1.hSIRPβ1, CHO-K1.hSIRPβL, and CHO-K1.hSIRPγ cells were seeded in culture medium (DMEM-F12 (Gibco) supplemented with 5% New Born Calf Serum (BioWest) and Pen/Strep (Gibco)) in 96-well flat-bottom tissue culture plates and incubated at 37° C., 5% CO₂ and 95% humidity for 24 hours. Subsequently, culture medium was removed and cells were incubated for 1 hour at 37° C., 5% CO₂ and 95% humidity with purified hSIRPα antibodies (used at 10 μg/mL and dilutions thereof). Next, cells were washed with PBS-T and incubated for 1 hour at 37° C., 5% CO₂ and 95% humidity with goat-anti-mouse IgG-HRP (Southern Biotech). Subsequently, cells were washed three times with PBS-T and immunoreactivity against hSIRPαV1, hSIRPαV2, hSIRPβ1, hSIRPβL, and hSIRPγ was visualized with TMB Stabilized Chromogen (Invitrogen). Reactions were stopped with 0.5 M H₂SO₄ and absorbances were read at 450 and 610 nm.
The KWAR23 antibody cross-reacts with all members of the SIRP receptor family tested: it binds to hSIRPαV1, hSIRPαV2, hSIRPβ1, hSIRPβL, and hSIRPγ.

T3 sequence (P78324 other isoform, or with tags, fused parts or gaps mutant limits assumed): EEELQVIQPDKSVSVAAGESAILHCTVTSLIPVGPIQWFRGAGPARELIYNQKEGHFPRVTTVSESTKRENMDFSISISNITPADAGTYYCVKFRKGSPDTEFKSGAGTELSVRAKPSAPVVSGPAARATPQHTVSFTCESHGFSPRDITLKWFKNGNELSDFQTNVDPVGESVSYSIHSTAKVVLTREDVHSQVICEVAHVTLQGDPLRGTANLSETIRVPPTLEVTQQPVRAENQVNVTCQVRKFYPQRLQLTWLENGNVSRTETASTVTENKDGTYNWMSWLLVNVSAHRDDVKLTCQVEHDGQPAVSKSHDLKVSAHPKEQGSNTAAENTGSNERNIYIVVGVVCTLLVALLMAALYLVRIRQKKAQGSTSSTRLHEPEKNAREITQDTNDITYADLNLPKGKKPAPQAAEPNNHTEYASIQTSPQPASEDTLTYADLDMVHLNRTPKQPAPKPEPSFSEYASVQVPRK
T2 sequence (P78324 31-504): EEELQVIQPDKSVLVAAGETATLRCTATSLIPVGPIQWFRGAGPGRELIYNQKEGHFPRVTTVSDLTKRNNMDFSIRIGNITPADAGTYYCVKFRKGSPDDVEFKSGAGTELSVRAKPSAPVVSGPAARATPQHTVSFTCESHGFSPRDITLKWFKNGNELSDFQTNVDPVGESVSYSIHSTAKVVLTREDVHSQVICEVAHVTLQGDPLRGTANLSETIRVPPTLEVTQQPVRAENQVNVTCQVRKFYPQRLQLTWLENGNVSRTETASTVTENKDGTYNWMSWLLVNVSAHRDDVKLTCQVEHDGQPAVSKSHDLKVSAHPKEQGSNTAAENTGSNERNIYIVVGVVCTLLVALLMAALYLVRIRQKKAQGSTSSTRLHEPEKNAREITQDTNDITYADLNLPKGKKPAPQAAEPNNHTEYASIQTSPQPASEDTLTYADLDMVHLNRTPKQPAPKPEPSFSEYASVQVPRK
T1 sequence (P78324 31-504 limits assumed, change not shown): as the sequence (P78324 31-504) above
T4 sequence (O00241 30-398 limits assumed): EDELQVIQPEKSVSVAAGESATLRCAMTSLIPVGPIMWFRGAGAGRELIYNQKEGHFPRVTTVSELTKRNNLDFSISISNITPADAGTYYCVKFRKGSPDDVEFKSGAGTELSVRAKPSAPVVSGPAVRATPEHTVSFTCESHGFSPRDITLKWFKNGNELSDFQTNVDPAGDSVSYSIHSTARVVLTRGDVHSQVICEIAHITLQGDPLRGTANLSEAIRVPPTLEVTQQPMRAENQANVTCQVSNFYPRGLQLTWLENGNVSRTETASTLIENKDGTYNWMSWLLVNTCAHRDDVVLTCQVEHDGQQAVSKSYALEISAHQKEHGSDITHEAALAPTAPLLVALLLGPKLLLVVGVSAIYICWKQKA

B1: hSIRPα.50A (antibody, V domains shown)
VH: QVQLQQSGPELVKPGASVRISCKASGFTFTNYYIHWVKQRPGQGLEWIGWIYPGNVNTKYNEKFKAKATLTADKSSTTAYMQLSSLASEDSAVYFCARPTIIATDFDVWGAGTTVTVSS
VL: DIVMTQSHKFMSTSVGDRVNITCKASQGVGTAVGWYQQKPGQSPRLLIYWASTRHTGVPDRFTGSGSGTDFSLAISNVQSEDLADYFCQQYSTYPFTFGGGTNLEIK
notes: light chain constant domain not tied; also called mouse hSIRPα.50A; hSIRPα.50A.mIgG1
With B1, the EC50 with human SIRPα variant 1 is 0.534 nM; in assay [1] it was 4.3 nM. Besides, in the assay with human SIRPα variant 2, the IC50 worked out at 7.83 nM.

B2: hSIRPα.40A (antibody, mouse IgG1, kappa, V domains shown)
VH: EVQFQQSGTVLARPGTSVKMSCKASGSTFTSYWMHWVKQGPGQGLQWIGAIYPVNNDTTYNQKFKGKAELTVVTSTSTAYMEVSSLTNEDSAVYYCTRSFYYSLDAAWFVYWGQGTLVTVSA
VL: DIQMTQSPSSLSASLGERVSLTCRASQDIGSRLNWLQQEPDGTIKRLIYATSSLDSGVPKRFSGSRSGSDYSLTISGLESEDFVDYYCLQYASSPFTFGGGTKLEINR
notes: mouse antibody, full chains without signal peptide; also called mouse hSIRPα.40A
With B2, the EC50 was 0.065 nM with human SIRPα variant 1 and 1.23 nM in assay [1]. In the assay with human SIRPα variant 2, the IC50 is 0.646 nM.

B3: KWAR23 (antibody, V domains shown)
VH: EVQLQQSGAELVKPGASVKLSCTASGFNIKDYYIHWVQQRTEQGLEWIGRIDPEDGETKYAPKFQDKATITADTSSNTAYLHLSSLTSEDTAVYYCARWGAYWGQGTLVTVSS
VL: QIVLTQSPAIMSASPGEKVTLTCSASSSVSSSYLYWYQQKPGSSPKLWIYSTSNLASGVPARFSGSGSGTSYSLTISSMEAEDAASYFCHQWSSYPRTFGAGTKLELK
B3: the response with human SIRPβ1 was half-maximal at 0.14 nM (EC50).
